Laboratory results taken from patent US11091512B2, “Modulation of antigen immunogenicity by deleting epitopes recognized by NKT cells” (Imnate Sarl, priority 2010, dated 2021).

Test system: CD4+ T cells and NKT cells
Assay: peripheral blood CD4+ T cells cultured with human dendritic cells loaded with natural or mutated antibody
Type: cell-based
Details: 5 to 7 days culture
From the text: Monoclonal human antibodies of the IgG4 isotype were derived from the peripheral blood B lymphocytes by transformation with the Epstein-Barr virus. The genomic sequence of such antibodies was obtained from transformed B cells. A viral vector containing the corresponding cDNA sequence was constructed and used for transfection of CHO cells. All these methods are known in the art (see for instance, Jacquemin et al Blood 92: 496-506, 1998).
The hydrophobic aminoacid residues located in position 1 in the peptides of SEQ ID18 and SEQ ID20 were mutated to a serine and the mutated antibody produced by transfected CHO cells.
Peripheral blood CD4+ T cells obtained as above were exposed in culture medium to human dendritic cells (derived from human peripheral blood monocytes by methods known in the art) and loaded with either the antibody in natural configuration (SEQ ID21) or its mutated counterpart (SEQ ID22). After culturing the cells with CD4+ T cells for 5 to 7 days, the population of CD4+ T cells activated by either natural or mutated antibody was evaluated. CD4+ NKT cells were separated from CD4+ T cells using an antibody to NKG2D, a surface marker associated with NK or NKT cells only.

B1: SEQ ID22: mutated counterpart of the IgG4 antibody, position 1 residues of SEQ ID18 and SEQ ID20 motifs mutated to serine (protein, listed as Homo sapiens)
chain: ASTKGPSVFPLAPCSRSTSESTAALGCLVKDYFPEPVTVSWNSGALTSGVHTFPAVLQSSGLYSLSSVVTVPSSSLGTKTYTCNVDHKPSNTKVDKRVESKYGPPCPSCPAPEFLGGPSVFLFPPKPKDTLMISRTPEVTCVVVDVSQEDPEVQFNWYVDGVEVHNAKTKPREEQFNSTSRVVSVLTVLHQDWLNGKEYKCKVSNKGLPSSIEKTISKAKGQPREPQVYTLPPSQEEMTKNQVSLTCLVKGFYPSDIAVEWESNGQPENNYKTTPPVLDSDGSFFLYSRLTVDKSRWQEGNVFSCSVMSEALHNHYTQKSLSLSLGK
activation of class II restricted CD4+ T cells: only activate class II restricted CD4+ T cells | activation of NKT cells (NKT cells separated with antibody to NKG2D): not NKT cells
